Measurements taken from paper PMC4159567, “Aggregation-prone c9FTD/ALS poly(GA) RAN-translated proteins cause neurotoxicity by inducing ER stress” (Acta Neuropathologica, 2014).

Molecular target: the molecule itself
Assay: gel and Western blot of high molecular weight species; purified recombinant GST-(GA)50 beside GST alone (Online Resource 1a); samples heated in Laemmli's buffer

B1: recombinant GST-(GA)50 protein (other, human)
chain: GAGAGAGAGAGAGAGAGAGAGAGAGAGAGAGAGAGAGAGAGAGAGAGAGAGAGAGAGAGAGAGAGAGAGAGAGAGAGAGAGAGAGAGAGAGAGAGAGAGA
notes: poly(GA) c9RAN dipeptide repeat, 50 repeats; (GA)50 cDNA in pGEX-6P-1 (BamHI/XhoI); RAN-translated from the G4C2 repeat of C9ORF72, not part of the C9ORF72 protein; also called poly(GA); source: E. coli Rosetta(DE3)pLysS, purified (Glutathione Sepharose 4B, eluted with glutathione, dialysed); not shown: GST, N-terminal, kept
B1: binds.
